Results from article PMC8111768.

Experiments:
[1] = target: VIC16 human IgG1 (wild type VIC16-human IgG1 REFORMab) (mouse | human); assay: BLI
[2] = target: T1, VIC16 human IgG1 (wild type VIC16-human IgG1 REFORMab) (mouse | human); assay: SPR; conditions: remark: other sources report otherwise
[3] = target: VIC16 REFORMab SDIEALGA (G236A/S239D/A330L/I332E) (mouse | human); assay: SPR; conditions: remark: other sources report otherwise
[4] = target: VIC16 REFORMab EFTEA (G236A/S267E/H268F/S324T/I332E) (mouse | human); assay: SPR; conditions: remark: other sources report otherwise
[5] = target: VIC16 REFORMab KWES (printed K236W/E333S) (mouse | human); assay: SPR; conditions: remark: other sources report otherwise
[6] = target: T1, VIC16 human IgG1 (wild type VIC16-human …); assay: BLI; remark: listed apart in the source

Binder	Kd [2] [µM]	Kd [6] [µM]	other results
recombinant murine FcγRI (receptor) EVVNATKAVITLQPPWVSIFQKENVTLWCEGPHLPGDSSTQWFINGTAVQISTPSYSIPEASFQDSGEYRCQIGSSMPSDPVQLQIHNDWLLLQASRRVLTEGEPLALRCHGWKNKLVYNVVFYRNGKSFQFSSDSEVAILKTNLSHSGIYHCSGTGRHRYTSAGVSITVKELFTTPVLRASVSSPFPEGSLVTLNCETNLLLQRPGLQLHFSFYVGSKILEYRNTSSEYHIARAEREDAGFYWCEVATEDSSVLKRSPELELQVLGPQSSAP			Kd [1]: 0.08 µM
recombinant human FcγR2B, P31994 43-310 (receptor, here or on the partner: soluble ectodomain by convention (UniProt topology); tag not stated) TPAAPPKAVLKLEPQWINVLQEDSVTLTCRGTHSPESDSIQWFHNGNLIPTHTQPSYRFKANNNDSGEYTCQTGQTSLSDPVHLTVLSEWLVLQTPHLEFQEGETIVLRCHSWKDKPLVKVTFFQNGKSKKFSRSDPNFSIPQANHSHSGDYHCTGNIGYTLYSSKPVTITVQAP	23		Kd [3]: 21 µM; Kd [4]: 1.2 µM; Kd [5]: 224 µM
recombinant human FcγR2A, P12318 34-317 (receptor, modifications not checked) QAAAPPKAVLKLEPPWINVLQEDSVTLTCQGARSPESDSIQWFHNGNLIPTHTQPSYRFKANNNDSGEYTCQTGQTSLSDPVHLTVLSEWLVLQTPHLEFQEGETIMLRCHSWKDKPLVKVTFFQNGKSQKFSHLDPTFSIPQANHSHSGDYHCTGNIGYTLFSSKPVTITVQVPSMGSSSPMG	30		
recombinant murine FcγRIIb, P08101 30-330 (receptor, modifications not checked) THDLPKAVVKLEPPWIQVLKEDTVTLTCEGTHNPGNSSTQWFHNGRSIRSQVQASYTFKATVNDSGEYRCQMEQTRLSDPVDLGVISDWLLLQTPQLVFLEGETITLRCHSWRNKLLNRISFFHNEKSVRYHHYSSNFSIPKANHSHSGDYYCKGSLGRTLHQSKPVTITVQGPKSSRSLP		14.9	
recombinant murine FcγRIV, A0A0B4J1G0 21-249 (receptor, modifications not checked) GLQKAVVNLDPKWVRVLEEDSVTLRCQGTFSPEDNSIKWFHNESLIPHQDANYVIQSARVKDSGMYRCQTALSTISDPVQLEVHMGWLLLQTTKWLFQEGDPIHLRCHSWQNRPVRKVTYLQNGKGKKYFHENSELLIPKATHNDSGSYFCRGLIGHNNKSSASFRISLGDPGSPSMFPPWHQ		0.24	
recombinant murine FcγRIII, P08508 31-261 (receptor, modifications not checked) ALPKAVVKLDPPWIQVLKEDMVTLMCEGTHNPGNSSTQWFHNGRSIRSQVQASYTFKATVNDSGEYRCQMEQTRLSDPVDLGVISDWLLLQTPQRVFLEGETITLRCHSWRNKLLNRISFFHNEKSVRYHHYKSNFSIPKANHSHSGDYYCKGSLGSTQHQSKPVTITVQDPATTSSISLVWYHT		2.83	
